From patent US20250250357A1 (NANJING ZAIMING PHARMACEUTICAL, published 2025)
Like-named read-outs stand apart in the source and are kept apart here.

T1: monkey MSLN full-length protein (NCBI: XP_028696439.1) expressed on HEK293T-monkey MSLN cells (monkey)
T1 construct: Whole encoded precursor
T1 chain: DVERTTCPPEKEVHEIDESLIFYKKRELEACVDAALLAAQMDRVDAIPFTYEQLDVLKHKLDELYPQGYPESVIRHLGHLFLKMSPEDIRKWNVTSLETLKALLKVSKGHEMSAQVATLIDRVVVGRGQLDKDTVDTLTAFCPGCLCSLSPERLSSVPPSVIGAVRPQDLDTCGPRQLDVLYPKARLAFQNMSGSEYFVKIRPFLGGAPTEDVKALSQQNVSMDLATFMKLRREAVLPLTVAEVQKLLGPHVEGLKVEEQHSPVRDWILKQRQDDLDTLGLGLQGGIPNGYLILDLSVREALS


Assays:
[1] = target: T2, human MSLN protein endogenously expressed on OVCAR3 tumor cells (human, UniProt Q13421 296-598); assay: FACS on OVCAR3 cells
T2 construct: whole, on cells; Endogenous target on OVCAR3 cells; kept apart from the recombinant full-length construct; also called mesothelin
T2 sequence (Q13421 other isoform, or with tags, fused parts or gaps): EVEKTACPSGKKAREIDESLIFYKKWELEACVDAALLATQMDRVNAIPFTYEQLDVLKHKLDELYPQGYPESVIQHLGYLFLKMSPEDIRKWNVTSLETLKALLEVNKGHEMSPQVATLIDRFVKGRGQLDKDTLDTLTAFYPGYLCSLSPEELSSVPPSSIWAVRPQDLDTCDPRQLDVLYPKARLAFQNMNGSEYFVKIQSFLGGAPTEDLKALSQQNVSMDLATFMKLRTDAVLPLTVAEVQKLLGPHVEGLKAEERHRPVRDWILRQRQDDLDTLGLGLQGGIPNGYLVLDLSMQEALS
Description: (§1) The desired cells were expanded to the logarithmic growth phase in a T-75 cell culture flask. […] After the cells from the previous step were subjected to cell counting, the cell pellet was resuspended to 2×10⁶ cells/mL in a blocking buffer of [PBS+2% (w/w) BSA] and added into a 96-well FACS reaction plate at 50 μL/well. A chimeric antibody (a sample to be tested) was added at 50 μL/well, and the plate was incubated on ice for 2 h. […] After the plate was centrifuged and washed 5 times with a PBST buffer, assay and analysis were performed by FACS (FACS CantoII, purchased from BD). Data analysis was performed by software (Flowjo) to obtain the mean fluorescence intensity (MFI) of the cells.

[2] = target: T3, human MSLN-R3 protein (Met487-Ser606 of NCBI AAH09272.1) expressed on HEK293T-hMSLN-R3 cells (human, UniProt Q13421 487-606); assay: FACS on HEK293T-hMSLN-R3 cells;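 note: flow cytometry binding of test chimeric antibodies to cells after 2 h incubation on ice, with values derived from the mean fluorescence intensity of the cells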
T3 construct: also called Region3
Description: as §1

[3] = target: T1, monkey MSLN full-length protein (NCBI: …); assay: FACS on HEK293T-monkey MSLN cells;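 note: flow cytometry binding of chimeric antibodies to the cells, with a 2 h incubation on ice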
Description: as §1

[4] = target: T4, human MSLN protein endogenously expressed on OVCAR3 tumor cells (human, UniProt Q13421 296-598); assay: FACS on OVCAR3 cells
T4 construct: whole, on cells; endogenous expression on a tumor cell line; also called human mesothelin
T4 sequence (Q13421 other isoform, or with tags, fused parts or gaps): as above

[5] = target: T5, human MSLN-R3 protein expressed on HEK293T cells (HEK293T-hMSLN-R3) (human, UniProt Q13421 487-606); assay: FACS on HEK293T-hMSLN-R3 cells;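 note: chimeric antibodies incubated with cells on ice for 2 h, binding read by flow cytometry as mean fluorescence intensity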
T5 construct: C-terminal limit uncertain
T5 sequence (Q13421 495-614): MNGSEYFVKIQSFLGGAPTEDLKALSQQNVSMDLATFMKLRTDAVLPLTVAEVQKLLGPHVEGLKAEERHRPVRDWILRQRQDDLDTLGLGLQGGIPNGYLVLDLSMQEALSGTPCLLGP

T3 sequence (Q13421 495-614): as above

| EC50 [1] [nM] | Maximum mean fluorescence intensity [1] | EC50 [2] [nM] | Maximum mean fluorescence intensity [2] | EC50 [3] [nM] | Maximum mean fluorescence intensity [3] | EC50 [4] [nM] | Maximum mean fluorescence intensity [4] | EC50 [5] [nM] | Maximum mean fluorescence intensity [5] | binding result [3] | Binder |
| --- | --- | --- | --- | --- | --- | --- | --- | --- | --- | --- | --- |
| 0.36 | 16600 | 0.14 | 6590 | 12.5 | 9230 | – | – | – | – | – | S009-F7.69.8 (antibody, human IgG1, kappa, V domains shown, human-murine chimeric antibody, human IgG1/kappa constant regions) VH: EVHLQQSGPELVKPGASVRIPCKASGYTFTDYNMDWVKQSHGKSLEWIGDINPDNGGTIYTQKFKGKATLTVDKSSSTAYMELRSLTSEDTAVYYCARRLHYYGSSGLDYWGQGTTLTVSS VL: DIQMTQSPASLSAYVGETVTITCRASGNIHNYLAWYQQKQGKSPQLLVYNAKTLADGVPSRFSGSGSGTQYSLKINSLQPEDFGSYYCQHFWSTVWTFGGGTKLEIKR |
| – | – | – | – | – | – | 0.86 | 5380 | 0.53 | 128000 | – | S009-F8-9.16 (antibody, human IgG1, kappa, V domains shown, human-murine chimeric antibody, human IgG1/kappa constant regions) VH: EVHLQQSGPVLVKPGASVKMSCKASGYTFTDYFMNWVKQSHGKSLEWIGVINPHNGYVNYNQKFQGRATLTVDKSSSTVYMELNSLTSEDSAVYHCARSAESAWFAYWGQRTLVTVSA VL: DVLMTQTPLSLPVSLGDQVSISCRSSQSIVHVKGNTYLEWYLQKPGQSPELLIYKVSNRFSGVPDRFSGGGSGTDFTLKISRVEPEDLGVYYCFQGSHLPYTFGGGTKLEIKR |
| 0.87 | 26500 | 0.91 | 6490 | 0.87 | 50200 | – | – | – | – | – | S009-F7.65.13 (antibody, human IgG1, kappa, V domains shown, human-murine chimeric antibody, human IgG1/kappa constant regions) VH: EVQLQQSGPELVKPGTSVKILCKASGDTFTAYNMDWVKQRHGQSLEWIGDINPNTDSTIYNQKFEGKAILTVDKSSSTAYMELRSLTSEDTAVYYCARRKLGRGYFDYWGQGTTLTVSS VL: QIVLTQSPAIMSASPGEKVTMTCSVNLSVRYIYWYQQKPGSSPRLLIHDTSNLASGVPVRFSGSGSGTSYSLTISRMEAEDAATYYCQQWSSFPYTFGGGTKLEIKR |
| 0.22 | 25900 | 0.35 | 7460 | 0.54 | 64200 | – | – | – | – | – | S009-F7.41.18 (antibody, human IgG1, kappa, V domains shown, human-murine chimeric antibody, human IgG1/kappa constant regions) VH: QVQLQQPGTELVKPGASVKLSCKASDYTFTSYWMHWVKQRPGQGLEWIGSINPSNGDTYYNEKFKNKATLTVDKSSSTAYMQLSSLTSDDSAVYYCARGWYFDVWGTGTTVTVSS VL: not shown |
| 0.37 | 29100 | 0.14 | 6930 | 0.36 | 59300 | – | – | – | – | – | S009-F7.67.12 (antibody, human IgG1, kappa, V domains shown, human-murine chimeric antibody, human IgG1/kappa constant regions) VH: QVQLQQPGTELVKPGASVRLSCRASGYSFSSYWMHWVKQRPGQGLEWLGNINPTTGDINYNEKFRNRATLAVDKSSTTAYLQLTSLTSEDSAVYFCVRHDGFLWGQGTTLTVSS VL: DIQMTQSPASLSASVGETVTITCRASENIYSYLAWYQQKQGKSPQLLVYYAKTLAEGVSSRFSGSGSGTQFSLKINSLQPEDFGTYYCQHQFGTPRTFGGGTKLEIRR |
| 0.05 | 25700 | 0.04 | 7470 | 0.04 | 45600 | – | – | – | – | – | S009-F7.44.20 (antibody, human IgG1, kappa, V domains shown, human-murine chimeric antibody, human IgG1/kappa constant regions) VH: EVQLQQSGPELVKPGASVKIPCKASGYTFTDYNMDWVKQSHGKSLEWIGDINPSTGGTIYNQKFNGKATLTEDKSASTVYMEFRSLTSDDTAVYYCARRRIGTGYFDVWGTGTTVTVSS VL: QIVLTQSPALMSASPGEKVTLTCSASSSVISSYLSWYQQKPGSSPKLLIYRTSNLASGVPARFSGSGSGTSYSLTISSMEAEDAASYFCHQWSSFPYTFGGGTKLEIKR |
| 1.08 | 23700 | 0.48 | 6250 | 0.75 | 39800 | – | – | – | – | – | S009-F7.61.21 (antibody, human IgG1, kappa, V domains shown, human-murine chimeric antibody, human IgG1/kappa constant regions) VH: DVQLQQSGPELVEPGASVRIPCKAAGHTFTDYNVDWVKQSHGQSLEWIGDVNPNTDGAIYNQKFEGKATLTVDTSSSTAYMELRSLTSEDTAVYFCARRRLGQGGFDSWGQGTTLTVSS VL: QVVLTQSPAIMSASPGEKVTLTCGASSSLISKYLYWYQQKPGSSPKLWIYSTSNLASGVPARFSGSGSGTSYSLTISSMEAEDAASYFCHQWSSYPYTFGGGTKVEIKR |
| 1.09 | 23600 | 1.3 | 6480 | 1.13 | 47400 | – | – | – | – | – | S009-F7.53.2 (antibody, human IgG1, kappa, V domains shown, human-murine chimeric antibody, human IgG1/kappa constant regions) VH: EVQLQQSGPELVKPGASVKIPCKTSGYTFTDYNMDWVKQSHGKSLEWIGDINPNTDGAIYNQKFQNKATLTVDKSSSTAYMELRSLTSEDTAVYYCTRRKLGRKFFDYWGQGTTLTVSS VL: QIVLTQSPAIMSASPGEQVTMTCSASSSVGYMNWYQQKPGSSPRLLIYDTSNLASGVPVHFSGSGSGTSYSLTISRMEAAFAATYYCQQWYVYPYTFGGGTKLEIKR |
| 0.15 | 31200 | 0.06 | 6480 | 0.13 | 47300 | – | – | – | – | – | S009-F7.33.24 (antibody, human IgG1, kappa, V domains shown, human-murine chimeric antibody, human IgG1/kappa constant regions) VH: QVQLQQPGTELVKPGASVKLSCKASGYTFTSYWMHWVKQRPGQGLEWIGNVNPSNGGSNYNEKFKNKATLTVDKSSSTADMQLNSLTSEDSAVYYCAPHYIGSRPGFAYWGQGTLVTVSG VL: DIVMTQSQKFMSTSVGDRVSVTCKASQNVGTNIAWYQQKPGQSPKALIYSASYRYSGVPDRFTGSGSGTDFTLTITNVQSEDLAEYFCQQYNSYPLTFGGGTKVEIKR |
| ~4 | 24000 | 1.87 | 5150 | 2.88 | 43200 | – | – | – | – | – | S009-F7.48.1 (antibody, human IgG1, kappa, V domains shown, human-murine chimeric antibody, human IgG1/kappa constant regions) VH: QVQLQQPGTELVKPGASVKLSCKASGYTFTSYWMHWVKQRPGQGLEWIGNINPSNGGTNNNENFKSKATLTVDTSSSTAYMQLSSLTSEDSAVYYCVRNGYHGYWYFDVWGTGTTVTVSS VL: DIVMTQSQKFMSTSVGDRVSVTCKASQNVGTNVAWYQQQPGQSPKALIYSASYRYSGVPDRFTGSVSGTDFTLTISNVQSEDLAEYFCQQYNSYPLTFGGGTKLEIKR |
| 0.87 | 21900 | 0.38 | 5900 | – | 60 | – | – | – | – | no binding | S009-F7.66.12 (antibody, human IgG1, kappa, V domains shown, human-murine chimeric antibody, human IgG1/kappa constant regions) VH: QIPLQQSGPELVKPGASVRISCKASDYAFSSSWMNWVKQRPEKGLEWIGRIFVESGNTHYNDKFNGKATLTADKSSRTAYIQLSSLTSEDSAVYFCTRENIFYHGHSSWFAYWGQGTLVTVSA VL: DIVLTQSPASLVVSLGQRATISCRAGESVDDFGISYVHWYQQKPGQPPKLLIYRAANLESGIPARFSGSGSRTDFTLTINPVETDDVAIYYCQQNNKDPFTFGSGTKLEIKR |
